Results on 5 molecules are retold here after patent publication US9393309B2, “Self-gelatinizable nucleic acid” (Kyoto University, priority 2011, dated 2016).

One data set relates to RAW264.7 cells. The data set is described as follows: Release of TNF-α from RAW264.7 cells (ELISA). To be noted: 0.5, 1 or 2 μg/ml, 8 hours. The class given is cell-based, murine. The method, then: In a RPMI1640 medium to which 10% heat inactivated FBS, 0.15% sodium bicarbonate, 100 units/ml penicillin, […] streptomycin and 2 mML-glutamine were added, murine macrophage-like RAW264.7 cells were proliferated in humidified air containing 5% CO2 at 37° C. Subsequently, cells were seeded on a 24-well or 96-well culture plate at a density of 5×10^5 cells/well, and cultured for 24 hours before use.
The RAW264.7 cells were seeded on a 24-well plate at a density of 2.5×10^5 cells/well, and incubated for 24 hours before treatment. Then, ssDNA, dsDNA, or several kinds of polypodnas diluted in 0.5 ml of Opti-MEM were added to the cells at a final concentration of 0.5, 1 or 2 μg/ml. The cells were incubated for 8 hours, the supernatant was recovered and stored at −70° C. before use. The concentrations of TNF-α and IL-6 in the supernatant were measured by Enzyme-Linked Immunosorbent Assay (ELISA) using an OptEIA™ set (Pharmingen, San Diego, Calif., USA).
The same experiment as in Example 22 was carried out except that each poolypodna preparation was prepared in the same manner as in Example 1 by using the sequences in Table 1. However, the added DNA was equal amount in each case.
In general terms: ELISA stands for enzyme-linked immunosorbent assay.

The nature of data set [1]: Release of encapsulated OVA from gel. Type of data set: physicochemical. To be noted: DNA 0.5 mM. The method, then:
By controlling the nature and salt concentration of protruding ends of Tetrapodna, the change of the releasing rate of an encapsulated compound in a gel was examined. Specifically, Tetrapodna (4-18-18) (SEQ ID NOs.: 2, 4, 5 and 6) including a cohesive protruding end and Tetrapodna (4-18-18) (SEQ ID NOs.: 58, 59, 60 and 61) as a control including a non-cohesive protruding end were used. In an aqueous solution of Tetrapodna which had been prepared such that the DNA concentration was 0.5 mM, the NaCl concentration was adjusted to 5 mM or 150 mM. When the NaCl concentration was increased, egg albumin (OVA, concentration of 2.5 μg/μl) was added as an encapsulated substance to cause gelation, and then the percentage of OVA released from the gel with the passage of time was measured.

Data set [2] can be described thus: Gel formation in a living body after subcutaneous injection of sol. Type of data set: in vivo. The following applies: total DNA 2 mM, NaCl 5 mM, back of mouse. The text has this:
The hydrogel produced in Example 1 was able to be prepared in a sol state by appropriately adjusting conditions. Therefore, the hydrogel was able to be administered in a living body by injection. […] Thus, it was confirmed that a gel is formed in a living body only by preparing the hydrogel in accordance with the present invention in a sol state and administering the hydrogel to a living body.

Data set [3] can be described thus: Evaluation of gelation at various DNA concentrations and NaCl concentrations. Type of data set: physicochemical. Details: key: ◯: the mark “∘” is given to cases in which gelation was observed; X: the mark “x” is given to cases of a solution state (sol-state). The method, then:
[…] The gel formation and the gel strength were measured by a gel strength analyzer (gel strength meter, Nakayamadenki Co., Ltd, Osaka).
Specifically, by changing the DNA concentrations of an aqueous solution of Tripodona (4-18-18) (X=4) (SEQ ID NOs.: 1, 2 and 3), Tetrapodna (4-18-18) (X=4) (SEQ ID NOs.: 2, 4, 5 and 6), Hexapodna (4-18-18) (X=4) (SEQ ID NOs.: 2, 3, 4, 7, 9 and 10) and Tetrapodna (8-16-16) (X=8) (SEQ ID NOs.: 22, 23, 24 and 25) as shown in the lines of Table 4, and by changing the NaCl concentration as shown in the rows of Table 4, whether or not a gel is formed at various DNA concentrations and NaCl concentrations was evaluated. The results are shown such that the mark “∘” is given to cases in which gelation was observed, and the mark “x” is given to cases of a solution state (sol-state).

Data set [4] is described as follows: Temperature conditions for gel formation. The class given is physicochemical. The following applies: NaCl 150 mM. As to the method:
Furthermore, we investigated a possibility that temperature conditions are also involved in gelation. Tetrapodna (4-18-18) (SEQ ID NOs.: 2, 4, 5 and 6), Hexapodna (4-18-18) (SEQ ID NOs.: 2, 3, 4, 7, 9 and 10) and Tetrapodna (8-16-16) (SEQ ID NOs.: 22, 23, 24 and 25) were used to examine the temperature conditions for allowing a gel be present or a sol to be present by fixing the NaCl concentration at 150 mM and changing the DNA concentration variously.

Data set [5] in a line: Formation of hydrogel from nucleic acid units without ligase. The class given is physicochemical. The following applies: without DNA ligase. As to the method:
A NaCl solution was added to an ODN solution (polypodna) such that the final Na^+ concentration was 5 to 150 mM. The gel formation and the gel strength were measured by a gel strength analyzer (gel strength meter, Nakayamadenki Co., Ltd, Osaka).
A structure to be a hydrogel (a nucleic acid monomer and an estimated nucleic acid unit) in conditions at room temperature, at 5 mM to 150 mM sodium chloride concentration (150 mM is substantially physiological concentration), and not containing a DNA ligase was elucidated. […] For convenience, nucleic acid units estimated to be formed according to the number of nucleic acid monomers capable of constituting the nucleic acid unit were represented by xxxpodna (xxxpod-like structure forming nucleic acid, xxx is substituted by tri (3), tetra (4) and the like, according to the number of nucleic acid monomers capable of constituting the nucleic acid unit). In Table 2 described below, xxxpodna is an estimated nucleic acid unit, and each of xxx-Y-N is a nucleic acid monomer that can be a constituent element of the nucleic acid unit (xxxpodna) which is mentioned above thereof. When the descriptions of Ys are different from each other, different nucleic acid units can be formed. N denotes numbering of nucleic acid monomers constituting each of the estimated nucleic acid units.
Unlike (1-1) described above, gelation can be controlled by using a nucleic acid monomer including cohesive protruding ends which are not attached to themselves (that is, not palindrome sequence).

Data set [6] can be described thus: Percentage of remaining gels with the passage of time. The class given is physicochemical. To be noted: DNA 0.5 mM, NaCl 150 mM. As to the method: Gels were formed by adjusting the NaCl concentration at 150 mM in an aqueous solution containing Tetrapodna (12-14-14) (SEQ ID NOs.: 30, 31, 32 and 33) at a DNA concentration of 0.1 mM, 0.25 mM or 0.5 mM, and the percentage of the remaining gels was measured with the passage of time. The results are shown in a graph in the left upper side of FIG. 17.
Gels were formed in conditions at a certain DNA concentration (0.5 mM) and a certain NaCl concentration (150 mM), and the percentage of the remaining gels was measured with the passage of time by using Tetrapodna (respectively, SEQ ID NOs.: 2, 4, 5 and 6, SEQ ID NOs.: 18, 19, 20 and 21, SEQ ID NOs.: 22, 23, 24 and 25, SEQ ID NOs.: 26, 27, 28 and 29, as well as SEQ ID NOs.: 30, 31, 32 and 33) having various lengths of the cohesive protruding end (4, 6, 8, 10 or 12 bases). The results are shown in a graph in the left lower side of FIG. 17. […] When 12 hours had passed, the percentage of the remaining gels became about 50%.
Gels were formed by variously changing the NaCl concentrations (5 mM, 50 mM, 100 mM or 150 mM) of an aqueous solution containing Tetrapodna (12-14-14) (SEQ ID NOs.: 30, 31, 32 and 33) at a DNA concentration of 0.5 mM, and the percentage of the remaining gels was measured with the passage of time. The results are shown in a graph in the right upper side of FIG. 17. […] At a low salt concentration (5 mM), almost all the formed gels became in a sol state when about 6 hours had passed. When the salt concentration was increased to 50 mM, solation tendency was weakened, a change from a gel into a sol occurred moderately (about 40% when 12 hours had passed).
The percentage of the remaining gels was measured with the passage of time in the same manner as in (8-3) except that Tetrapodna (4-18-18) (SEQ ID NOs.: 2, 4, 5 and 6) was used instead of Tetrapodna (12-14-14) (SEQ ID NOs.: 30, 31, 32 and 33). The results are shown in a graph in the right lower side of FIG. 17. […] In (8-3), Tetrapodna (12-14-14) (the length of the cohesive protruding end is 12 bases) was used. In (8-4), Tetrapodna (4-18-18) (the length of the cohesive protruding end is 4 bases) was used.

In data set [7] the test system is mouse dendritic cell DC2.4. In words: Stimulation of dendritic cells by gel. The class given is cell-based. To be noted: gel brought into contact with DC2.4.

Regarding “ssDNA36: single strand 36 mer ODN, SEQ ID No. 108 (DNA TCGCTGACGTTGCAGACATCACGTTGACGCTGTCGA; unmodified DNA) [reference compound]”, the TNF-α release entry in the data set with RAW264.7 cells is on record as “the TNF-α release hardly occurred”.

B1: control Tetrapodna: Tetrapodna (4-18-18), SEQ ID NOs.: 58, 59, 60 and 61, non-cohesive protruding end, control (nucleic acid)
DNA 1: AGTCTCGCTGACGTTGCAGACATCACGTTGACGCTGTCGA
DNA 2: AGTCTCGACAGCGTCAACGTGAAACGTGAAGCGTCTGCGA
DNA 3: AGTCTCGCAGACGCTTCACGTTGCAGACAGACGTTGACGA
DNA 4: AGTCTCGTCAACGTCTGTCTGCTGTCTGCAACGTCAGCGA
modifications: unmodified DNA
Consider B1, for which the gelation result in data set [1] (NaCl 5 mM or 150 mM) is recorded as “Gelation hardly found”. Further, the “percentage of OVA released from the first” value in data set [1] (OVA 2.5 μg/μl) is recorded as around 100%. In addition, the “gel formation in a living body” value in data set [2] is reported as “a gel was not formed in a living body”.

B2: Hexapodna(4-18-18): six ODNs, SEQ ID NOs.: 2, 3, 4, 7, 9 and 10, 4-base cohesive protruding end (nucleic acid)
DNA 1: ACGTTCGACAGCGTCAACGTGAAACGTGAAGCGTCTGCGA
DNA 2: ACGTTCGCAGACGCTTCACGTTGAGCACAGACGTTGACGA
DNA 3: ACGTTCGCTGACGTTGCAGACATCACGTTGACGCTGTCGA
DNA 4: ACGTTCGTCAACGTCTGTGCTCGCAGCGTCTTAACGTCGA
DNA 5: ACGTTCGACGTTAAGACGCTGCAGACGTTCAGGACTACGA
DNA 6: ACGTTCGTAGTCCTGAACGTCTTGTCTGCAACGTCAGCGA
modifications: unmodified DNA
As for B2, the gelation result is “◯” in data set [3] (Na+ 2 mM, DNA 0.8 mM); “X” in data set [3] (Na+ 20 mM, DNA 0.7 mM); “X” in data set [3] (Na+ 50 mM, DNA 0.5 mM); “X” in data set [3] (Na+ 50 mM, DNA 0.6 mM); “◯” in data set [3] (Na+ 50 mM, DNA 0.7 mM); “X” in data set [3] (Na+ 100 mM, DNA 0.4 mM). Besides, the gelation result is on record as “◯” in data set [3] (Na+ 100 mM, DNA 0.5 mM); “◯” in data set [3] (Na+ 100 mM, DNA 0.6 mM); “X” in data set [3] (Na+ 150 mM, DNA 0.3 mM); “◯” in data set [3] (Na+ 150 mM, DNA 0.4 mM). Also, the “temperature at which gel is present” value in data set [4] (DNA concentration 1.0 mM) was “gel at 65 °C”; in data set [4] (DNA concentration 0.3-0.8 mM), “gel at 55 °C”. Further, the “temperature at which sol is present” value in data set [4] (DNA concentration 1.0 mM) was “sol at 75 °C”; in data set [4] (DNA concentration 0.3-0.8 mM) it was “sol at 65 °C”. The gel formation entry in data set [5] is “gels can be prepared”.

B3: Tetrapodna(8-16-16): four ODNs, SEQ ID NOs.: 22, 23, 24 and 25, 8-base cohesive protruding end (nucleic acid)
DNA 1: ACGTACGTTAGCACGACATCAGCGTCTGACGCTTCGTCGA
DNA 2: ACGTACGTTCGACGAAGCGTCAGATCTCGTCAACGCTGCA
DNA 3: ACGTACGTTGCAGCGTTGACGAGACAGACGCTTGACGCTA
DNA 4: ACGTACGTTAGCGTCAAGCGTCTGCGCTGATGTCGTGCTA
modifications: unmodified DNA
Regarding B3, in data set [3] (Na+ 2 mM, DNA 0.6 mM), the gelation entry is given as “◯”. In addition, the gelation entry in data set [3] (Na+ 10 mM, DNA 0.5 mM) was “X”. In addition, the gelation result in data set [3] (Na+ 20 mM, DNA 0.5 mM) is on record as “◯”. In data set [4] (DNA concentration 0.5 mM), the “temperature at which gel is present” value was “gel at 55 °C” and the “temperature at which sol is present” value is “sol at 75 °C”. The gel formation result in data set [5] was “gels can be prepared”. For the same molecule, in data set [6], the “initial percentage of gels” value is on record as “about 100%” and the “percentage of the remaining gels with the passage of time” value is on record as “decreased with the passage of time only slightly”.

B4: Tetrapodna (4-18-18) which does not contain a CpG motif: four ODNs, SEQ ID NOs.: 14, 15, 16 and 17, not containing CpG (nucleic acid)
DNA 1: AGCTAGGCACCGTAGTCAATCGCCGATGTGTCCAAAGCCT
DNA 2: AGCTAGGCTTTGGACACATCGGTGCTCCTACCGTACTCCT
DNA 3: AGCTAGGAGTACGGTAGGAGCAGTTTCGGCATGTCCACCT
DNA 4: AGCTAGGTGGACATGCCGAAACCGATTGACTACGGTGCCT
modifications: DNA, all phosphodiester, methylation of C not given here
As for B4, in data set [7], the “immunological stimulation of dendritic cell” value is “did not immunologically stimulate a mouse dendritic cell”.
